Test [1] has as its target integrins on CHO and CHO-C2 cells (Chinese hamster (endogenous in CHO)).
Test [2] addresses C2 isoform of CD46 on CHO-C2 cells (human).
The target is the same in test [3]. This is another data set of the same source.
Test [4] deals with adenovirus serotype 35 vector virions (human adenovirus serotype 35).
Test [5] has as its target adenovirus serotype 43 virions (human adenovirus serotype 43).

recombinant soluble human CD46 protein comprising the extracellular component of the receptor, sequence (P15529 35-343): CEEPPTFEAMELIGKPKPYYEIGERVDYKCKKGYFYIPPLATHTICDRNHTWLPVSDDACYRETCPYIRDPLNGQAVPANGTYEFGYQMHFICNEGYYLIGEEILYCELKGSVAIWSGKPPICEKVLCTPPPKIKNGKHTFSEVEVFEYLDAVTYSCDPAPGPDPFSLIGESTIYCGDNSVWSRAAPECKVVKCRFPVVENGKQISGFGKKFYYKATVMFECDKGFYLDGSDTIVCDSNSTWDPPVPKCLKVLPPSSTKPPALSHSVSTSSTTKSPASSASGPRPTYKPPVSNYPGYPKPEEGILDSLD

“adenovirus serotype 43 virions (complex)”: in test [1], the inhibition of Ad43TL transduction of CHO and CHO-C2 cells pre-treated on ice with EDTA (10 mM), virus attached on ice was above 80%; the inhibition of Ad43TL transduction of CHO and CHO-C2 cells pre-treated on ice with the RGD-containing peptide GRGDSP (2 mg/ml), virus attached on ice is above 80%.

As for “recombinant Ad35 fiber knob domain (domain or fragment)”, in test [2], the inhibition of Ad35TL transduction of CHO-C2 cells pre-incubated with the Ad35 knob (Fluc activity); the pair blocked is m4 with m6 is 90% and the inhibition of Ad43TL transduction of CHO-C2 cells pre-incubated with the Ad35 knob (Fluc activity); the pair blocked is m3 with m6 is 45%.

Regarding “recombinant Ad43 fiber knob protein (domain or fragment)”, the inhibition of Ad43TL infection of CHO-C2 cells pre-incubated with the Ad43 knob at 100 μg/ml (no inhibition; the text prints 100 mg/ml) and 1 mg/ml; the pair blocked is m3 with m6 in test [3] was found to be 55%.

The substance “recombinant soluble human CD46 protein comprising the extracellular component of the receptor (from UniProt P15529 35-343) (domain or fragment)” yielded an inhibition of CHO-C2 transduction by Ad35TL pre-incubated with sCD46 (Fluc activity); the pair blocked is m4 with m6 in test [4] of 92%. Moreover, the inhibition of CHO-C2 transduction by Ad43TL pre-incubated with sCD46 (Fluc activity); the pair blocked is m3 with m6 in test [5] was found to be 66%.

Source of the values: PMC5288196.
